From patent US9012166B2, “Method for assaying histone methylation enzyme activity” (Kyushu Institute of Technology, priority 2010, dated 2015) come the findings set out here.

*: point of attachment. AMC = Cc1cc(=O)oc2cc(N*)ccc12

In the first test the target is T1, G9a (GST-mG9a) (Mus musculus, UniProt Q9Z148).
T1 sequence (Q9Z148 1-1263): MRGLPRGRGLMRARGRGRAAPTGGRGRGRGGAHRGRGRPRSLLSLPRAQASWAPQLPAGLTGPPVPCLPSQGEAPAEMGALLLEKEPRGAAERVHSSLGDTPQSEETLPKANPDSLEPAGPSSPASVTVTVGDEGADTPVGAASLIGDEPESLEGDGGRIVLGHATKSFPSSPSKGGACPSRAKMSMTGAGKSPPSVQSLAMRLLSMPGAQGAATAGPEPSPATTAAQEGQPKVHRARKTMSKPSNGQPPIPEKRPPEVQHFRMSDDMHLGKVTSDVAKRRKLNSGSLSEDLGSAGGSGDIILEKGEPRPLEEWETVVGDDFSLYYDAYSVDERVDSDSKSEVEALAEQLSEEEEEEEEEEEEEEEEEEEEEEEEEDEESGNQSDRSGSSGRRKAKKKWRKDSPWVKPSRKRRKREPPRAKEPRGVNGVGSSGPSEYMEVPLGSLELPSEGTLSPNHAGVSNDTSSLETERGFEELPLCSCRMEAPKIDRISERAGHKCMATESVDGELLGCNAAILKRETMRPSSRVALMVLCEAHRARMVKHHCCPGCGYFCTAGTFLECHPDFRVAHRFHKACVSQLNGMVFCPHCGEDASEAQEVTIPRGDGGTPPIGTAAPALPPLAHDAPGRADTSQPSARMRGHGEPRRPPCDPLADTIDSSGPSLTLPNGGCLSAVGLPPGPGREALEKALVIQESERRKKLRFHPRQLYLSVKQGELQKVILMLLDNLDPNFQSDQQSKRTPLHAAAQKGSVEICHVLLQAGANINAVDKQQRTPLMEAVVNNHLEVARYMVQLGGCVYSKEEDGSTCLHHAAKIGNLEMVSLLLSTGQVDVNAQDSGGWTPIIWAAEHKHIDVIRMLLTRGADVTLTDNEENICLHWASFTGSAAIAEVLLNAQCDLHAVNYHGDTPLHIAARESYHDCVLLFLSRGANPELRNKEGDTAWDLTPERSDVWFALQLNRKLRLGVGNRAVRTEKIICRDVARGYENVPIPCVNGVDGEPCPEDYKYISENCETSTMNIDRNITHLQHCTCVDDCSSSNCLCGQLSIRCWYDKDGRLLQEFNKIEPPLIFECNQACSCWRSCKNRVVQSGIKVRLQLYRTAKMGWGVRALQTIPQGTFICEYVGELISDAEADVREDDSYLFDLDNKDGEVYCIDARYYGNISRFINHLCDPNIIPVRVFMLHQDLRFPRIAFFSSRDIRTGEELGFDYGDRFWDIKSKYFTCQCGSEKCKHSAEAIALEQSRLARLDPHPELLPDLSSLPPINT
Briefly: Substrate specificity / methylation of substrate compounds by G9a. In kind it is biochemical. The conditions noted are these: Example 4; BocLysMCA 0.009 mM to 0.09 mM; G9a 0-0.15 μg/μL; FIG. 9. The protocol: Distilled water was added to 10 μL of 2×HMT buffer (100 mM Tris-HCl (pH 8.5), 20 mM MgCl2, 40 mM KCl, 20 mM 2-mercaptoethanol, 500 mM sucrose), 2 μL of a BSA solution (30 μg/mL), and a predetermined concentration (final concentration: 0, 0.015, 0.05, or 0.15 μg/μL) of a histone methyltransferase (G9a) solution to adjust the total volume to 16 μL. Thereafter, the resultant solution was incubated at room temperature for 1 hour. Then, 2 μL of S-adenosylmethionine (SAM) (10 mM) and 2 μL of BocLysMCA (final concentration: 0.009 mM, 0.03 mM, or 0.09 mM) were added thereto, which was mixed and then incubated at 37° C. for 1 hour. Subsequently, 30 μL of a trypsin solution (20 mg/mL) was added thereto, followed by incubation at 37° C. for 15 minutes. The fluorescence intensity of the solution was measured at an excitation wavelength (λex) of 390 nm and a fluorescence wavelength (λem) of 460 nm.
When G9a was adopted as a histone methyltransferase, the following method was used. 10 μL of 2×HMT buffer (100 mM Tris-HCl (pH 8.5), 20 mM MgCl2, 40 mM KCl, 20 mM 2-mercaptoethanol, 500 mM sucrose), 0.4 μL of a BSA solution (150 μg/mL), 4.5 μL of GST-mG9a (0, 0.022 to 0.66 μg/μL), and 1.1 μL of distilled water were mixed and then incubated at room temperature for 1 hour. Then, 2 μL of SAM (10 mM) and 2 μL of a peptidyl MCA solution (0.6 mM) were added thereto, which was then incubated at 37° C. for 1 hour. Thereafter, 30 μL of a trypsin solution (20 mg/mL) was added thereto, followed by incubation at 37° C. for 15 minutes. Then, the fluorescence intensity of the solution was measured at an excitation wavelength (λex) of 390 nm and a fluorescence wavelength (λem) of 460 nm. The final concentration of GST-mG9a during the measurement of fluorescence intensity was 0, 0.005, 0.015, 0.05, or 0.15 μg/μL. The results of the assay for measuring histone methyltransferase activity are shown in the left panel of FIG. 14.
When G9a was adopted as a histone methyltransferase, the following method was used. 10 μL of 2×HMT buffer (100 mM Tris-HCl (pH 8.5), 20 mM MgCl2, 40 mM KCl, 20 mM 2-mercaptoethanol, 500 mM sucrose), 0.4 μL of a BSA solution (150 μg/mL), 3.6 μL of GST-mG9a (0, 0.028, 0.083, 0.28, 0.83 μg/μL), and 4 μL of distilled water were mixed and then incubated at room temperature for 1 hour. Then, 1 μL of SAM (20 mM) and 1 μL of a peptidyl MCA solution (1.2 mM) were added thereto, which was then incubated at 37° C. for 1 hour. Thereafter, 30 μL of a trypsin solution (20 mg/mL) was added thereto, followed by incubation at 37° C. for 15 minutes. Then, the fluorescence intensity of the solution was measured at an excitation wavelength (λex) of 390 nm and a fluorescence wavelength (λem) of 460 nm. The final concentration of GST-mG9a during the measurement of fluorescence intensity was 0, 0.005, 0.015, 0.05, or 0.15 μg/μL. The results of the assay for measuring histone methyltransferase activity are shown in the left panel of FIG. 16.
When G9a was adopted as a histone methyltransferase, the following method was used. 10 μL of 2×HMT buffer (100 mM Tris-HCl (pH 8.5), 20 mM MgCl2, 40 mM KCl, 20 mM 2-mercaptoethanol, 500 mM sucrose), 0.4 μL of a BSA solution (150 μg/mL), 4 μL of GST-mG9a (0, 0.025 to 0.75 μg/μL), and 3.6 μL of distilled water were mixed and then incubated at room temperature for 1 hour. Then, 1 μL of SAM (final concentration: 1 mM) and 1 μL, of a peptidyl MCA solution (1.2 mM) were added thereto, which was then incubated at 37° C. for 1 hour. Thereafter, 30 μL of a trypsin solution (20 mg/mL) was added thereto, followed by incubation at 37° C. for 15 minutes. Then, the fluorescence intensity of the solution was measured at an excitation wavelength (λex) of 330 nm and a fluorescence wavelength (λem) of 380 nm or at an excitation wavelength (λex) of 390 nm and a fluorescence wavelength (λem) of 460 nm. The final concentration of GST-mG9a during the measurement of fluorescence intensity was 0, 0.005, 0.015, 0.05, or 0.15 μg/μL.
In the case of `Cc1cc(=O)oc2cc(NC(=O)C(CCCCN)NC(=O)OC(C)(C)C)ccc12` (stereo not shown) [BocLysMCA, Boc-K-MCA], the “fluorescence intensity of AMC after G9a reaction and trypsin” value is listed as “decreased in a manner dependent on the concentration of the histone methyltransferase G9a”.

Still in this test, the particulars now being: Example 6; GST-mG9a 0-0.15 μg/μL; left panel of FIG. 14.
On to “Ac-QLATKAARK-MCA (Ac-QLATKAARK-{AMC}; SMILES CC(=O)N[C@@H](CCC(N)=O)C(=O)N[C@@H](CC(C)C)C(=O)N[C@@H](C)C(=O)N[C@H](C(=O)N[C@@H](CCCCN)C(=O)N[C@@H](C)C(=O)N[C@@H](C)C(=O)N[C@@H](CCCNC(=N)N)C(=O)N[C@@H](CCCCN)C(=O)Nc1ccc2c(C)cc(=O)oc2c1)[C@@H](C)O; listed as Homo sapiens) [Ac-histone H3 (19-27)-MCA]”, for which the “methylation of peptidyl MCA by G9a” value is “methylation often occurred”.
Same read-out and setting: the result for “Ac-KAARK-MCA (Ac-KAARK-{AMC}; SMILES CC(=O)N[C@@H](CCCCN)C(=O)N[C@@H](C)C(=O)N[C@@H](C)C(=O)N[C@@H](CCCNC(=N)N)C(=O)N[C@@H](CCCCN)C(=O)Nc1ccc2c(C)cc(=O)oc2c1; listed as Homo sapiens) [Ac-histone H3 (23-27)-MCA]” reads “methylation often occurred”; that for “Ac-LKSK-MCA (Ac-LKSK-{AMC}; SMILES CC(=O)N[C@@H](CC(C)C)C(=O)N[C@@H](CCCCN)C(=O)N[C@@H](CO)C(=O)N[C@@H](CCCCN)C(=O)Nc1ccc2c(C)cc(=O)oc2c1; listed as Homo sapiens) [Ac-p53 (369-372)-MCA]”, “little methylation occurred”; that for “Ac-ARTKQTARK-MCA [Ac-histone H3 (1-9)-MCA]”, “methylation often occurred”.
On the same count and under the same terms, the result for “Ac-ARTK-MCA (Ac-ARTK-{AMC}; SMILES CC(=O)N[C@@H](C)C(=O)N[C@@H](CCCNC(=N)N)C(=O)N[C@H](C(=O)N[C@@H](CCCCN)C(=O)Nc1ccc2c(C)cc(=O)oc2c1)[C@@H](C)O; listed as Homo sapiens) [Ac-histone H3 (1-4)-MCA]” reads “little methylation occurred”; that for “Ac-ARK-MCA (Ac-Ala-Arg-Lys-{AMC}; SMILES CC(=O)N[C@@H](C)C(=O)N[C@@H](CCCNC(=N)N)C(=O)N[C@@H](CCCCN)C(=O)Nc1ccc2c(C)cc(=O)oc2c1; listed as Homo sapiens) [Ac-histone H3 (7-9/25-27)-MCA, acetyl-ARK (human histone H3 7-9 or 25-27)-MCA substrate]”, “methylation often occurred”.
For the compound Ac-QTARK-MCA [Ac-histone H3 (5-9)-MCA], the “methylation of peptidyl MCA by G9a” value is given as “methylation often occurred”.

Still in this test, the particulars now being: Example 13; AMC and peptidyl MCA fluorescence; FIGS. 25 and 26.
For the compound “Ac-ARTKQTARK-MCA [Ac-histone H3 (1-9)-MCA]”, the “methylation of peptidyl MCA by GST-mG9a” value is reported as “methylates”.
The same measure, in the same setting: to “Ac-KRSK-MCA (Ac-KRSK-{AMC}; SMILES CC(=O)N[C@@H](CCCCN)C(=O)N[C@@H](CCCNC(=N)N)C(=O)N[C@@H](CO)C(=O)N[C@@H](CCCCN)C(=O)Nc1ccc2c(C)cc(=O)oc2c1; listed as Homo sapiens) [Ac-ERα (299-302)-MCA]” belongs “does not methylate”.
